Test results taken from paper PMC8615749, “Human Parainfluenza Virus 3 Phosphoprotein Is a Tetramer and Shares Structural and Interaction Features with Ebola Phosphoprotein VP35” (Biomolecules, 2021).

B1: Zaire Ebolavirus (EBOV) phosphoprotein VP35, construct of residues 65-145 (LC8 anchor 65-82 and mult (domain or fragment)
chain: NPKTRNSQTQTDPICNHSFEEVVQTLASLATVVQQQTIASESLEQRITSLENGLKPVYDMAKTISSLNRVCAEMVAKYDLL
notes: also called VP35 65-145; EBOV VP35 65-145
B2: PMDL, recombinant construct of the human parainfluenza virus 3 phosphoprotein (HPIV3 P): short P_TAI (domain or fragment)
chain: SDHKPTSKGQKKISKTTTTNTDTKGQTETQTESSETQSNVDTASKIDFLAGLVIGVSMDNDTKLIQIQNEMLNLKADLKRMDESHRRLIENQREQLSLITSLISNLKIMT
notes: source: E. coli Rosetta DE3, purified (TALON His-Tag resin, SEC Superdex 75)

Legend:
[1] = target: T1, LC8 (DYNLL1), recombinant (human, UniProt P63167 1-89); assay: ITC; settings: both partners purified
T1 construct: also called human LC8

[2] = target: the molecule itself; assay: SEC-MALS

T1 sequence (P63167 whole entry): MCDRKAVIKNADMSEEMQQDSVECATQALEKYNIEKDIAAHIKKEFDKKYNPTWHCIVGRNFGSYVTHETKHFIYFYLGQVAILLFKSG

| Binder | Kd [1] | stoichiometry N [2] |
| --- | --- | --- |
| B1 | 0.13 µM | 4 |
| B2 | ~50 µM | 4 |
